Columns and labels:
[1] = biological target: T1, human PD-1 (human, UniProt Q15116 25-167, limits assumed); assay: cell-based or functional assay
[2] = biological target: T2, cynomolgus monkey PD-1 (cynomolgus monkey, UniProt B0LAJ3 25-170); assay: method not stated for this value (human value by Biacore)
T2 construct: also called cynomolgus PD-1

[3] = biological target: T1, human PD-1; assay: Biacore (SPR)
Source text: PDR-001 was characterized in vitro for its affinity and activity on human PD-1. PDR-001 was expressed in a CHO cell line. PDR-001 bound with high affinity to human PD-1. […] In lymphocyte stimulation assays using human blood ex vivo, PDR-001 enhanced interleukin-2 (IL-2) production by approximately 2 fold in response to super antigen stimulation with Staphylococcus enterotoxin B (SEB).

T1 sequence (Q15116 25-167 limits assumed): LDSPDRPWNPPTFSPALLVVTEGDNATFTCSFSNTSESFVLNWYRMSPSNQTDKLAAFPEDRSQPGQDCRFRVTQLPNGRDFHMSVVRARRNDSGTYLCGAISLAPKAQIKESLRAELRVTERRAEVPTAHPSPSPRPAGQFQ
T2 sequence (B0LAJ3 entry or part of it limits assumed, form in doubt): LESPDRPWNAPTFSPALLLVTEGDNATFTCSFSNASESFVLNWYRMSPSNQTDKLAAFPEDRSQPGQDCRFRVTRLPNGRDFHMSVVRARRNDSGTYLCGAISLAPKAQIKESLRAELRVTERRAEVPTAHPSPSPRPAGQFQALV

B1: PDR-001 (antibody, IgG4, V domains shown)
VH: EVQLVQSGAEVKKPGESLRISCKGSGYTFTTYWMHWVRQATGQGLEWMGNIYPGTGGSNFDEKFKNRVTITADKSTSTAYMELSSLRSEDTAVYYCTRWTTGTGAYWGQGTTVTVSS
VL: EIVLTQSPATLSLSPGERATLSCKSSQSLLDSGNQKNFLTWYQQKPGQAPRLLIYWASTRESGVPSRFSGSGSGTDFTFTISSLEAEDAATYYCQNDYSYPYTFGQGTKVEIK
notes: also called BAP049-Clone-E (variable regions)
- interleukin-2 (IL-2) production in lymphocyte stimulation assays using human blood ex vivo, super antigen stimulation with Staphylococcus enterotoxin B (SEB) [1]: ~2 fold
- Kd [2]: 0.93 nM
- Kd [3]: 0.83 nM

From patent publication US20190151365A1 (Novartis, published 2019)
